Numbering of substitutions follows the chain as printed.
Legend:
[1] = target: T1, SARS-CoV-2受体结合区RBD-His蛋白 (SARS-CoV-2, UniProt P0DTC2 316-550); assay: indirect ELISA, RBD-His coated at 2 μg/mL, HRP goat anti-human IgG
T1 construct: range 316-550

[2] = target: T1, SARS-CoV-2受体结合区RBD-His蛋白
[3] = target: SARS-CoV-2 Sde18截短蛋白 (假病毒SARS-CoV2 VSVpp所携带) (SARS-CoV-2, UniProt P0DTC2 14-1255); assay: cell-based or functional assay
[4] = target: T2, SARS-CoV-2受体结合区RBD-mFc (SARS-CoV-2, UniProt P0DTC2 319-541); assay: indirect ELISA, RBD-mFc coated at 2 μg/mL, HRP goat anti-rabbit IgG
T2 construct: domain: 受体结合区RBD

B1: 3F4人源化抗体 (VH SEQ ID NO:15 + VL SEQ ID NO:19) (antibody, V domains shown)
VH: EVQLVESGGGLVQPGGSLRLSCAASGFSLSSYWMSWVRQAPGKGLEWVSIIFTGGSTYYASWAKGRFTISRHNSKNTLYLQMNSLRAEDTAVYYCARTSYYDVSGWGVGRLDLWGQGTLVTVSS
VL: DIQMTQSPSTLSASVGDRVTITCQSSQSVYDNNWLGWYQQKPGKAPKLLIYSASTLASGVPSRFSGSGSGTEFTLTISSLQPDDFATYYCAGGYSGNIFAFGQGTKLEILR
- binding result [1]: binds

B2: 3F4人源化抗体 (VH SEQ ID NO:18 + VL SEQ ID NO:19) (antibody, V domains shown)
VH: B1 VH with A23T, A24V
VL: B1 VL
- binding result [1]: binds

B3: 3F4人源化抗体 (VH SEQ ID NO:17 + VL SEQ ID NO:19) (antibody, V domains shown)
VH: B1 VH with V92T, Y94F
VL: B1 VL
- binding result [1]: binds

B4: 3F4人源化抗体 (VH SEQ ID NO:16 + VL SEQ ID NO:19) (antibody, V domains shown)
VH: B1 VH with V48I, S49G
VL: B1 VL
- binding result [1]: binds

B5: 兔源单克隆抗体3F4 (antibody, V domains shown)
VH: QSVKESGGRLVTPGTPLTLTCTVSGFSLSSYWMSWVRQAPGKGLEWIGIIFTGGSTYYASWAKGRFTISKTSTTVDLKITSPTTEDTATYFCARTSYYDVSGWGVGRLDLWGQGTLVTVSS
VL: DPMLTQTASSVSAAVGGTVTISCQSSQSVYDNNWLGWYQQKPGQPPKLLIYSASTLASGVPSRFKGSGSGTQFTLTISDLECDDAATYYCAGGYSGNIFAFGGGTELEIL
notes: also called r3F4
- Kd [2]: 8.79 nM
- IC50 (SARS-CoV2 VSVpp假病毒感染模型中和, BHK21-hACE2细胞) [3]: 1.95 ng/mL
- EC50 [4]: 14.4 ng/mL

Source: patent CN113583115A (YANG SHENG TANG CO LTD; UNIV XIAMEN, dated 2021)
